In the supplement of paper PMC10126150:
± gives the standard deviation of the averaged measurements.

System: ATP
Assay: switch fluorescence ratio, 500 uM ATP over buffer (Cy3 cluster intensity, sum of 5 cycles each) (fold (ratio)); higher = stronger signal-on switching upon ATP binding; sequences stand for … in TCGTCGGCAGCGTCAGATGTGTATAAGAGACAGTTTTTTTTTTTTTTTTTTTTTTTTT…TC
Settings: aptamer strand: ATP DNA aptamer (quencher-CACCTGGGGGAGTATTGCGGAGGAAGG + anchor), 100 nM annealed; ATP concentration: 500 uM
Outline: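 Between each of five buffer/ATP cycles, the flow-cell was stripped with NaOH and re-annealed. Each cycle imaged Cy3-labelled switching-strand clusters, annealed to 100 nM quencher-labelled ATP aptamer on a modified Illumina MiSeq flow-cell, first in selection buffer and then after 15 min with 500 uM ATP at 22 °C. The fluorescence ratio is summed target-cycle over summed buffer-cycle Cy3 intensity per cluster, averaged per switch-domain sequence, with clusters outside 100-1000 RFU excluded.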
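Also: ATP exposure 15 min at 22 °C before imaging.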

TTCGGTGGCG
switch fluorescence ratio: 0.978 ± 0.077

TTCGGTGGGT
switch fluorescence ratio: 0.988 ± 0.027

TTCGGTGGTT
switch fluorescence ratio: 1.08 ± 0.076

TTCGTACAGC
switch fluorescence ratio: 1.04 ± 0.036

TTCGTAGAAA
switch fluorescence ratio: 1.05 ± 0.032

TTCGTATGGG
switch fluorescence ratio: 1.09 ± 0.12

TTCGTCGGAT
switch fluorescence ratio: 0.9991 ± 0.0037

TTCGTGGGGA
switch fluorescence ratio: 0.995 ± 0.025

TTCGTGTACG
switch fluorescence ratio: 1.02 ± 0.019

TTCGTGTATT
switch fluorescence ratio: 1 ± 0.025

TTCGTTAAAG
switch fluorescence ratio: 0.9612 ± 0.002

TTCGTTAAGA
switch fluorescence ratio: 0.992 ± 0.0094

TTCGTTATGT
switch fluorescence ratio: 0.98 ± 0.027

TTCGTTCGGT
switch fluorescence ratio: 1.06 ± 0.07

TTCGTTCTTC
switch fluorescence ratio: 0.993 ± 0.019

TTCGTTGGGG
switch fluorescence ratio: 1.01 ± 0.041

TTCGTTTATT
switch fluorescence ratio: 1.01 ± 0.046

TTCGTTTCGT
switch fluorescence ratio: 0.995 ± 0.014

TTCGTTTTAG
switch fluorescence ratio: 0.996 ± 0.033

TTCGTTTTCT
switch fluorescence ratio: 1 ± 0.039

TTCGTTTTGA
switch fluorescence ratio: 1.02 ± 0.057

TTCTAAAAAA
switch fluorescence ratio: 1.01 ± 0.021

TTCTAAAGGG
switch fluorescence ratio: 0.984 ± 0.065

TTCTAACTGG
switch fluorescence ratio: 0.995 ± 0.013

TTCTAAGGTA
switch fluorescence ratio: 0.993 ± 0.021

TTCTACTGGG
switch fluorescence ratio: 1.01 ± 0.028

TTCTAGTCTA
switch fluorescence ratio: 0.987 ± 0.01

TTCTATATGT
switch fluorescence ratio: 0.977 ± 0.027

TTCTATGCAT
switch fluorescence ratio: 1.14 ± 0.13

TTCTATTCTT
switch fluorescence ratio: 1.02 ± 0.026

TTCTCAAAGA
switch fluorescence ratio: 1.07 ± 0.1

TTCTCGAGTT
switch fluorescence ratio: 0.992 ± 0.013

TTCTCGTACA
switch fluorescence ratio: 1.19 ± 0.29

TTCTCTAATG
switch fluorescence ratio: 1.03 ± 0.016

TTCTCTATAT
switch fluorescence ratio: 1.05 ± 0.11

TTCTCTTGTT
switch fluorescence ratio: 1 ± 0.037

TTCTGAATTT
switch fluorescence ratio: 0.999 ± 0.028

TTCTGACGGT
switch fluorescence ratio: 1.12 ± 0.037

TTCTGCGGCT
switch fluorescence ratio: 1.12 ± 0.039

TTCTGCTCGC
switch fluorescence ratio: 1.08 ± 0.058

TTCTGGATCT
switch fluorescence ratio: 0.996 ± 0.044

TTCTGGCATG
switch fluorescence ratio: 1.09 ± 0.099

TTCTGGGGCT
switch fluorescence ratio: 1.03 ± 0.017

TTCTGGGGTG
switch fluorescence ratio: 1.46 ± 0.67

TTCTGGGTGG
switch fluorescence ratio: 0.987 ± 0.04

TTCTGGTAGG
switch fluorescence ratio: 1 ± 0.025

TTCTGTAATT
switch fluorescence ratio: 1.02 ± 0.018

TTCTGTTAGA
switch fluorescence ratio: 1 ± 0.012

TTCTGTTGAT
switch fluorescence ratio: 0.9875 ± 0.0092

TTCTTATTTT
switch fluorescence ratio: 0.999 ± 0.014

TTCTTGATAA
switch fluorescence ratio: 1.01 ± 0.013

TTCTTGGGGG
switch fluorescence ratio: 1.01 ± 0.029

TTCTTTATTT
switch fluorescence ratio: 0.993 ± 0.027

TTCTTTGAAT
switch fluorescence ratio: 1.036 ± 0.0013

TTCTTTGACT
switch fluorescence ratio: 0.983 ± 0.024

TTCTTTGGAC
switch fluorescence ratio: 1.0597 ± 0.0003

TTCTTTTCTT
switch fluorescence ratio: 1.02 ± 0.047

TTGAAAATCT
switch fluorescence ratio: 1.02 ± 0.029

TTGAAATATT
switch fluorescence ratio: 1.02 ± 0.013

TTGAAATCTT
switch fluorescence ratio: 1.78 ± 1

TTGAAATTT
switch fluorescence ratio: 1.001 ± 0.003

TTGAACGAGA
switch fluorescence ratio: 0.998 ± 0.019

TTGAACGCGG
switch fluorescence ratio: 1.05 ± 0.018

TTGAACGGGA
switch fluorescence ratio: 1.01 ± 0.044

TTGAACTTGT
switch fluorescence ratio: 1.03 ± 0.028

TTGAAGGTGC
switch fluorescence ratio: 1.69 ± 0.43

TTGAATAGTG
switch fluorescence ratio: 0.966 ± 0.029

TTGAATTTGT
switch fluorescence ratio: 0.975 ± 0.023

TTGACAAGAT
switch fluorescence ratio: 1.28 ± 0.39

TTGACACTCG
switch fluorescence ratio: 0.98 ± 0.021

TTGACAGAGT
switch fluorescence ratio: 1.01 ± 0.028

TTGACCGGAA
switch fluorescence ratio: 1.14 ± 0.038

TTGACCTGGT
switch fluorescence ratio: 1.05 ± 0.053

TTGACGAAAT
switch fluorescence ratio: 1.41 ± 0.03

TTGACGCAGT
switch fluorescence ratio: 1.23 ± 0.03

TTGACGTATT
switch fluorescence ratio: 0.9874 ± 0.006

TTGACGTGTG
switch fluorescence ratio: 0.961 ± 0.01

TTGACTTTTT
switch fluorescence ratio: 0.991 ± 0.016

TTGAGAATAC
switch fluorescence ratio: 1.62 ± 0.68

TTGAGAATT
switch fluorescence ratio: 1.02 ± 0.051

TTGAGATCGG
switch fluorescence ratio: 1.01 ± 0.05

TTGAGATGGT
switch fluorescence ratio: 0.954 ± 0.017

TTGAGATTCG
switch fluorescence ratio: 1.01 ± 0.031

TTGAGATTGC
switch fluorescence ratio: 0.98 ± 0.027

TTGAGCAGCG
switch fluorescence ratio: 1.09 ± 0.07

TTGAGCATAG
switch fluorescence ratio: 1.43 ± 0.44

TTGAGCCA
switch fluorescence ratio: 1.01 ± 0.025

TTGAGCTAGG
switch fluorescence ratio: 1.01 ± 0.023

TTGAGCTGTT
switch fluorescence ratio: 0.981 ± 0.033

TTGAGGAATG
switch fluorescence ratio: 1.02 ± 0.018

TTGAGGGCAT
switch fluorescence ratio: 1.29 ± 0.45

TTGAGGGGCG
switch fluorescence ratio: 0.996 ± 0.044

TTGAGGTATA
switch fluorescence ratio: 0.987 ± 0.025

TTGAGTACTT
switch fluorescence ratio: 0.988 ± 0.025

TTGAGTCATG
switch fluorescence ratio: 0.978 ± 0.047

TTGAGTGGTC
switch fluorescence ratio: 0.997 ± 0.016

TTGAGTTACT
switch fluorescence ratio: 0.981 ± 0.063

TTGAGTTCGG
switch fluorescence ratio: 0.986 ± 0.015

TTGAGTTTGA
switch fluorescence ratio: 0.994 ± 0.011

TTGATATAGT
switch fluorescence ratio: 0.9993 ± 0.0073

TTGATATATA
switch fluorescence ratio: 0.974 ± 0.018

TTGATATATT
switch fluorescence ratio: 0.981 ± 0.017

TTGATATCTA
switch fluorescence ratio: 0.982 ± 0.049

TTGATATGGA
switch fluorescence ratio: 0.98 ± 0.022

TTGATATGGG
switch fluorescence ratio: 1.03 ± 0.11

TTGATCTCAT
switch fluorescence ratio: 0.9479 ± 0.0076

TTGATGCGGA
switch fluorescence ratio: 0.971 ± 0.05

TTGATGCTCT
switch fluorescence ratio: 1.21 ± 0.28

TTGATGGATG
switch fluorescence ratio: 1.04 ± 0.09

TTGATGGGAT
switch fluorescence ratio: 0.988 ± 0.052

TTGATGGGTA
switch fluorescence ratio: 1.01 ± 0.032

TTGATGGTAA
switch fluorescence ratio: 0.977 ± 0.022

TTGATGGTAC
switch fluorescence ratio: 1.0774 ± 0.00051

TTGATGTGCT
switch fluorescence ratio: 1.01 ± 0.013

TTGATGTTGG
switch fluorescence ratio: 0.992 ± 0.048

TTGATTACTC
switch fluorescence ratio: 1.04 ± 0.051

TTGATTCAGC
switch fluorescence ratio: 1.01 ± 0.012

TTGATTCATA
switch fluorescence ratio: 0.98126 ± 0.00011

TTGATTCATT
switch fluorescence ratio: 1.01 ± 0.025

TTGATTGATA
switch fluorescence ratio: 1 ± 0.028

TTGATTGCTT
switch fluorescence ratio: 0.9717 ± 0.0011

TTGATTGGCC
switch fluorescence ratio: 0.958 ± 0.018

TTGATTGGTA
switch fluorescence ratio: 1 ± 0.041

TTGATTTCGT
switch fluorescence ratio: 0.9998 ± 0.0024

TTGCAAAACT
switch fluorescence ratio: 1.32 ± 0.51

TTGCAAATCG
switch fluorescence ratio: 1.11 ± 0.18

TTGCAATTAT
switch fluorescence ratio: 1.26 ± 0.18

TTGCACCATT
switch fluorescence ratio: 1.05 ± 0.12

TTGCACGGTT
switch fluorescence ratio: 1.04 ± 0.06

TTGCACGTAT
switch fluorescence ratio: 1.08 ± 0.056

TTGCACGTTT
switch fluorescence ratio: 1.27 ± 0.19

TTGCATATAG
switch fluorescence ratio: 1.3 ± 0.065

TTGCATCTTG
switch fluorescence ratio: 1.01 ± 0.033

TTGCATGATG
switch fluorescence ratio: 0.9611 ± 0.0076

TTGCATGGGC
switch fluorescence ratio: 1.05 ± 0.063

TTGCATTTAA
switch fluorescence ratio: 1.0047 ± 0.00053

TTGCCAAGGT
switch fluorescence ratio: 1 ± 0.013

TTGCCACGGA
switch fluorescence ratio: 1.07 ± 0.051

TTGCCGGCTA
switch fluorescence ratio: 1.038 ± 0.0057

TTGCCTCGTT
switch fluorescence ratio: 1.05 ± 0.023

TTGCCTGAAA
switch fluorescence ratio: 1 ± 0.019

TTGCCTGTGT
switch fluorescence ratio: 1.039 ± 0.0012

TTGCCTGTTT
switch fluorescence ratio: 0.967 ± 0.049

TTGCGAAATC
switch fluorescence ratio: 1.44 ± 0.58

TTGCGACGCT
switch fluorescence ratio: 1.17 ± 0.13

TTGCGAGTTG
switch fluorescence ratio: 1 ± 0.021

TTGCGCGGAC
switch fluorescence ratio: 2.34 ± 1.5

TTGCGCGGGA
switch fluorescence ratio: 1.02 ± 0.072

TTGCGGAGGA
switch fluorescence ratio: 1.01 ± 0.043

TTGCGGCTGG
switch fluorescence ratio: 0.974 ± 0.031

TTGCGGGGGG
switch fluorescence ratio: 1.03 ± 0.032

TTGCGGGTGG
switch fluorescence ratio: 1.01 ± 0.028

TTGCGTATTT
switch fluorescence ratio: 0.993 ± 0.033

TTGCGTGTGG
switch fluorescence ratio: 1.048 ± 0.0046

TTGCGTTGTG
switch fluorescence ratio: 0.992 ± 0.041

TTGCTAATCA
switch fluorescence ratio: 1 ± 0.04

TTGCTAGGGC
switch fluorescence ratio: 1.01 ± 0.033

TTGCTCATAA
switch fluorescence ratio: 1 ± 0.032

TTGCTCGTGG
switch fluorescence ratio: 1.028 ± 0.0047

TTGCTGGATT
switch fluorescence ratio: 1 ± 0.033

TTGCTGGCCG
switch fluorescence ratio: 1.03 ± 0.026

TTGCTGGCGG
switch fluorescence ratio: 1 ± 0.038

TTGCTGGGCG
switch fluorescence ratio: 0.995 ± 0.026

TTGCTGGGGT
switch fluorescence ratio: 1.01 ± 0.044

TTGCTGTACG
switch fluorescence ratio: 1.04 ± 0.021

TTGCTGTGAG
switch fluorescence ratio: 0.9762 ± 0.0012

TTGCTTCAAT
switch fluorescence ratio: 0.983 ± 0.045

TTGCTTGCGT
switch fluorescence ratio: 1.01 ± 0.03

TTGCTTGTGT
switch fluorescence ratio: 0.9983 ± 0.0049

TTGCTTTAAT
switch fluorescence ratio: 0.988 ± 0.019

TTGGAAAAAG
switch fluorescence ratio: 1.1 ± 0.18

TTGGAACGGG
switch fluorescence ratio: 1.02 ± 0.011

TTGGAAGCAT
switch fluorescence ratio: 1.01 ± 0.036

TTGGAAGTAG
switch fluorescence ratio: 0.9688 ± 0.0029

TTGGAAGTTC
switch fluorescence ratio: 1 ± 0.019

TTGGAATTCA
switch fluorescence ratio: 1.02 ± 0.071

TTGGAATTCT
switch fluorescence ratio: 1.04 ± 0.081

TTGGAATTGT
switch fluorescence ratio: 1.005 ± 0.0075

TTGGACATTT
switch fluorescence ratio: 0.999 ± 0.013

TTGGACCCAT
switch fluorescence ratio: 1.02 ± 0.02

TTGGACGCAC
switch fluorescence ratio: 2.08 ± 0.12

TTGGACGGGT
switch fluorescence ratio: 1.022 ± 0.008

TTGGACTAAA
switch fluorescence ratio: 1.06 ± 0.011

TTGGACTACT
switch fluorescence ratio: 0.984 ± 0.035

TTGGACTGGG
switch fluorescence ratio: 0.948 ± 0.082

TTGGAGGCGG
switch fluorescence ratio: 0.984 ± 0.066

TTGGAGGCTC
switch fluorescence ratio: 1.03 ± 0.024

TTGGAGGTGG
switch fluorescence ratio: 0.959 ± 0.031

TTGGATAAAC
switch fluorescence ratio: 1.03 ± 0.053

TTGGATGTGT
switch fluorescence ratio: 0.9407 ± 0.001

TTGGCATGGG
switch fluorescence ratio: 0.99 ± 0.015

TTGGCCACGC
switch fluorescence ratio: 1.018 ± 0.0056

TTGGCCGGGG
switch fluorescence ratio: 1.01 ± 0.029

TTGGCCTATA
switch fluorescence ratio: 0.973 ± 0.021

TTGGCGGGGT
switch fluorescence ratio: 1.04 ± 0.081

TTGGCGTCGT
switch fluorescence ratio: 0.995 ± 0.043

TTGGCTATTT
switch fluorescence ratio: 0.9981 ± 0.0075

TTGGCTTACT
switch fluorescence ratio: 1.11 ± 0.11

TTGGCTTAGA
switch fluorescence ratio: 1.001 ± 0.01

TTGGGAAAGT
switch fluorescence ratio: 0.995 ± 0.017
